Source: PMC3961188, “The bHLH Factors Extramacrochaetae and Daughterless Control Cell Cycle in Drosophila Imaginal Discs through the Transcriptional Regulation of the cdc25 Phosphatase string”

T1: Daughterless (Da), GST fusion (Drosophila melanogaster, UniProt P11420 1-710)
T1 sequence: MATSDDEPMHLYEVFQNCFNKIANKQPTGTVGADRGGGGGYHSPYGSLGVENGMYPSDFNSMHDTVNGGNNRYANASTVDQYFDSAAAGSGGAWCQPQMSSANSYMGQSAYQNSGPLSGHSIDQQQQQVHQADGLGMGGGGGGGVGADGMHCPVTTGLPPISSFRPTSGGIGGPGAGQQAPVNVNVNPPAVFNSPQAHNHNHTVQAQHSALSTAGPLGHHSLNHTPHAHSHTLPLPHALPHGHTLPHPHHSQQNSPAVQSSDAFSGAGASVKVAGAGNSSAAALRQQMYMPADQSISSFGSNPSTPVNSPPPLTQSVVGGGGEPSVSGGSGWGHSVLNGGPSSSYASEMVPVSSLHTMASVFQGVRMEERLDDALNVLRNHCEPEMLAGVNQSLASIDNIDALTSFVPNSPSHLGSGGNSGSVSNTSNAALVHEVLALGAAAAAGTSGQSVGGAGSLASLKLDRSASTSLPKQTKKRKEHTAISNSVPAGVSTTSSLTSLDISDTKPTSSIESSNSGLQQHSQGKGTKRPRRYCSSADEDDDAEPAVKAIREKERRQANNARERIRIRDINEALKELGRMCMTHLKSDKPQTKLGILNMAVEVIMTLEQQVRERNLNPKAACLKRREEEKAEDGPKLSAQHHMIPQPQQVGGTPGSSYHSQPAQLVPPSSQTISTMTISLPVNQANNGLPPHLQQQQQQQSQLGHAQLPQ


How the values were obtained:
[1] = target: T1, Daughterless (Da), GST fusion; experiment: EMSA; direct Cy5 probe; not stated in the material (EMSA buffer, salt, pH and temperature not given); conditions: protein: recombinant; tags: N-terminal GST (pDEST 15); chain copies: 2; blunt
[2] = target: T1, Daughterless (Da), GST fusion; experiment: EMSA; Cy5 and Cy3 versions of the probe; not stated in the material (EMSA buffer, salt, pH and temperature not given); conditions: protein: recombinant; tags: N-terminal GST (pDEST 15); chain copies: 2; blunt

| Binder | binding result [1] | binding result [2] |
| --- | --- | --- |
| stg prom* (cy5) (dsDNA) DNA 1: TAGCTCATACTAGTATCGTGA DNA 2: TCACGATACTAGTATGAGCTA | no binding | – |
| stg prom (cy5 / cy3) (dsDNA) DNA 1: TAGCTCATCAGCTGATCGTGA DNA 2: TCACGATCAGCTGATGAGCTA | – | binds |
